B1: Switchdrug DARPin 17-1 (designed binder)
chain: MRGSHHHHHHGSDLGQKLLEAAWAGQDDEVRELLKAGADVNAKNSRGWTPLHTAAQTGHLEIFEVLLKAGADVNAKNDKRVTPLHLAAALGHLEIVEVLLKAGADVNARDSWGTTPADLAAKYGHQDIAEVLQKAAGSPTPTPTTPTPTPTTPTPTPTGSDLGKKLLQAARAGQLDEVRELLKAGADVNAKDSTGWTPLHLAAPWGHPEIVEVLLKAGADVNAKDFQGWTPLHLAAAAGHLEIVEVLLKAGADVNAKDWLGWTPLHLAASHGHLEIVEVLLKAGADVNAQDKSGKTPADLAARAGHQDIAEVLQKAA
notes: also called 2-in-1 DARPin17 in Format 1
B4: VEGF165 (ligand, UniProt P15692-4 27-191, looked up)
chain: APMAEGGGQNHHEVVKFMDVYQRSYCHPIETLVDIFQEYPDEIEYIFKPSCVPLMRCGGCCNDEGLECVPTEESNITMQIMRIKPHQGQHIGEMSFLQHNKCECRPKKDRARQENPCGPCSERRKHLFVQDPQTCKCSCKNTDSRCKARQLELNERTCRCDKPRR
modifications: biotinylated in the ELISA of Example 4 (site not stated)
notes: also called biotinylated VEGF165; soluble VEGF

Columns and labels:
scCD3εγ [1] = molecular target: T1, scCD3εγ; experiment: ELISA: plate-bound biotinylated scCD3εγ, His-tagged construct titrated without and with 100 nM soluble VEGF
T1 chain 1: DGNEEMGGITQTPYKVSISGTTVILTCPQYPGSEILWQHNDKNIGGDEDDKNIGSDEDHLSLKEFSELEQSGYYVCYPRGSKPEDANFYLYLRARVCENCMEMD
T1 chain 2: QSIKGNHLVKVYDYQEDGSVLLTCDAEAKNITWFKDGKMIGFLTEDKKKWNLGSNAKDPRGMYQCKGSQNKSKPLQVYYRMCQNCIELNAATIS
Protocol: (§1) The difference in binding of Switchdrug DARPins to scCD3εγ in presence and absence of VEGF was assessed. […] Said Switchdrug DARPins were mixed with a constant concentration of VEGF (100 nM) and tested for binding to scCD3εγ. […] The difference in EC50 of a construct in presence and absence of VEGF can be referred to as the “activation window”.
(§2) Switchdrug DARPins that were mixed with VEGF were titrated and pre-incubated for 1 day with VEGF in order to establish the thermodynamic equilibrium. These samples were loaded on the ELISA plate, incubated and washed, before the bound Switchdrug DARPins were detected as described above.

scCD3εγ [2] = molecular target: T1, scCD3εγ; experiment: ELISA: plate-bound biotinylated scCD3εγ, His-tagged construct titrated, no VEGF
Protocol: as §1, §2

scCD3εγ [3] = molecular target: T1, scCD3εγ; experiment: as above
Protocol: as §2

scCD3εγ [4] = molecular target: T1, scCD3εγ; experiment: ELISA: plate-bound biotinylated scCD3εγ, His-tagged construct titrated in presence of 100 nM soluble VEGF
Protocol: as §1, §2

VEGF165 [5] = molecular target: B4; experiment: ELISA: plate-bound biotinylated VEGF165, His-tagged binder titrated, anti-His-HRP detection
Protocol: Binding is detected via an HRP-labeled anti-His antibody.
Then a titration of the Switchdrug DARPins was applied, incubated and washed. Detection of bound his-tagged constructs was done by anti-RGS(his)4 mAb HRP conjugate, and detected by TMB substrate.

VEGF165 [6] = molecular target: B4; experiment: SPR (ProteOn), VEGF165 immobilized, single-trace 50 nM, 25 C
scCD3εγ [7] = molecular target: T1, scCD3εγ; experiment: ELISA: plate-bound biotinylated scCD3εγ, His-tagged α-CD3 mono-DARPin titrated, no VEGF
scCD3εγ [8] = molecular target: T1, scCD3εγ; experiment: as above
scCD3εγ [9] = molecular target: T1, scCD3εγ; experiment: ELISA: plate-bound biotinylated scCD3εγ, His-tagged α-CD3 mono-DARPin titrated in presence of 100 nM soluble VEGF
Protocol: (§3) ELISA assays offer an easy and qualitative way to determine the binding of the Switchdrug DARPin constructs to a target. The difference in binding of Switchdrug DARPins to scCD3εγ in presence and absence of VEGF was assessed. […] Said Switchdrug DARPins were mixed with a constant concentration of VEGF (100 nM) and tested for binding to scCD3εγ. […] The difference in EC50 of a construct in presence and absence of VEGF can be referred to as the “activation window”.
as §2

scCD3εγ [10] = molecular target: T1, scCD3εγ; experiment: ELISA: plate-bound biotinylated scCD3εγ, His-tagged α-CD3 mono-DARPin titrated, no VEGF
scCD3εγ [11] = molecular target: T1, scCD3εγ; experiment: ELISA on scCD3εγ, DARPin titrated
scCD3εγ [12] = molecular target: T1, scCD3εγ; experiment: ELISA: plate-bound biotinylated scCD3εγ, His-tagged α-CD3 mono-DARPin titrated, no VEGF
scCD3εγ [13] = molecular target: T1, scCD3εγ; experiment: as above
scCD3εγ [14] = molecular target: T1, scCD3εγ; experiment: as above
scCD3εγ [15] = molecular target: T1, scCD3εγ; experiment: ELISA: plate-bound biotinylated scCD3εγ, His-tagged α-CD3 mono-DARPin titrated in presence of 100 nM soluble VEGF
Protocol: as §3, §2

scCD3εγ [16] = molecular target: T1, scCD3εγ; experiment: SPR, bio-scCD3εγ coated on NAD chip, DARPin 333.33-4.11 nM
scCD3εγ [17] = molecular target: T1, scCD3εγ; experiment: ELISA: plate-bound biotinylated scCD3εγ, His-tagged α-CD3 mono-DARPin titrated, no VEGF
Switchdrug DARPin 17-3 [18] = molecular target: T2, Switchdrug DARPin 17-3; experiment: ELISA: 10 nM Switchdrug DARPin 17-3 pre-incubated with titrated soluble VEGF; read-out is the construct bound to plate-bound biotinylated scCD3εγ (release of the α-CD3 binder)
T2 construct: also called 2-in-1 DARPin17 in Format 3
T2 chain: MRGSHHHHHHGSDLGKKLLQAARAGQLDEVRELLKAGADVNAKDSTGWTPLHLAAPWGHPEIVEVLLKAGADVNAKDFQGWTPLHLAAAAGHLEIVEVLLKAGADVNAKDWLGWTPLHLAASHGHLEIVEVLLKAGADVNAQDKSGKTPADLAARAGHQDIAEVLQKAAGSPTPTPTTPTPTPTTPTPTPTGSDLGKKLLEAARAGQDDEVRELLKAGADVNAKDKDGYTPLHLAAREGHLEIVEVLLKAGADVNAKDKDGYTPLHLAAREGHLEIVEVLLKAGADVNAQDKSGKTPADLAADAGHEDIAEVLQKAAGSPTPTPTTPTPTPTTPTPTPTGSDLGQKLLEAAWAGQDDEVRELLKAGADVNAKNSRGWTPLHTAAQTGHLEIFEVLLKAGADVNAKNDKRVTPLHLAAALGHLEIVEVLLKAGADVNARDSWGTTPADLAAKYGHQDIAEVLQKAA
Protocol: as §2

Switchdrug DARPin 18-3 [19] = molecular target: T3, Switchdrug DARPin 18-3; experiment: HTRF: 20 nM Switchdrug DARPin with titrated soluble VEGF; read-out is the construct's binding to 1 nM biotinylated scCD3εγ (release of the α-CD3 binder)
T3 construct: also called 2-in-1 DARPin18 in Format 3
T3 chain: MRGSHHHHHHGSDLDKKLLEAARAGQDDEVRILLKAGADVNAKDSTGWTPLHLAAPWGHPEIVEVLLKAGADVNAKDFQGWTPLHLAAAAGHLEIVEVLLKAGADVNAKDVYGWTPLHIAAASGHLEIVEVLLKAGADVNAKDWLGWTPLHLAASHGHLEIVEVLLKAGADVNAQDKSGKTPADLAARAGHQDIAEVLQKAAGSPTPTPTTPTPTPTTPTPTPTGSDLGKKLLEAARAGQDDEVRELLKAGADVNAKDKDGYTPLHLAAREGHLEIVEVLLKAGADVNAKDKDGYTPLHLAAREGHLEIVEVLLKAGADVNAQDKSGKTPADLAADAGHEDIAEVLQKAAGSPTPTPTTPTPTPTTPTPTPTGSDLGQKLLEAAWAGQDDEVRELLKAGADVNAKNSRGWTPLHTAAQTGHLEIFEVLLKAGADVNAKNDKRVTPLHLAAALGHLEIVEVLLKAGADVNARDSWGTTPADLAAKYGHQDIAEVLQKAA
Protocol: (§4) Said Switchdrug DARPins (20 nM final concentration) were mixed with 1 nM (final concentration) scCD3εγ, 1:200 (final concentration) of anti-FLAG-d2 HTRF antibody-FRET acceptor conjugate (Cisbio) and 1:200 (final concentration) of anti-strep-Tb antibody FRET donor conjugate (Cisbio, France). […] The mix was added to a well of a 384-well plate and incubated for 90 minutes.

Switchdrug DARPin 17-3 [20] = molecular target: T2, Switchdrug DARPin 17-3; experiment: as above
Protocol: as §4

Switchdrug DARPin 15-3 = molecular target: T4, Switchdrug DARPin 15-3; experiment: as above
T4 construct: also called 2-in-1 DARPin15 in Format 3
T4 chain: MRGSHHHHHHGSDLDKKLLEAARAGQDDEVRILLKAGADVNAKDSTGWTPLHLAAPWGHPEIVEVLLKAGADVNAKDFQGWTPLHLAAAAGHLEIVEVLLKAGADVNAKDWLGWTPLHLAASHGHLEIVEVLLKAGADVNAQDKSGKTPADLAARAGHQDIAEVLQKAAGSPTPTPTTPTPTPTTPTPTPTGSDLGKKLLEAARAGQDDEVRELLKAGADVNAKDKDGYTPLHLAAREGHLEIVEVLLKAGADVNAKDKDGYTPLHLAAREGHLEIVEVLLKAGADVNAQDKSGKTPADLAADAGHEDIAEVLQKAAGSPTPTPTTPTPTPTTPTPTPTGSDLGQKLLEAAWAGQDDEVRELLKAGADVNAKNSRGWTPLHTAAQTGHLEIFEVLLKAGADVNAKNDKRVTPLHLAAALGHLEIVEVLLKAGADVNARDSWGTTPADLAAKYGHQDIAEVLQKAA
Protocol: as §4

Switchdrug DARPin 17-1 = molecular target: B1; experiment: ELISA: 10 nM Switchdrug DARPin 17-1 pre-incubated with titrated soluble VEGF; read-out is the construct bound to plate-bound biotinylated scCD3εγ (release of the α-CD3 binder)
Protocol: as §2

Switchdrug DARPin 18-3 [21] = molecular target: T3, Switchdrug DARPin 18-3; experiment: ELISA: 100 nM Switchdrug DARPin 18-3 pre-incubated with titrated soluble VEGF; read-out is the construct bound to plate-bound biotinylated scCD3εγ (release of the α-CD3 binder)
Protocol: as §2

## B1
scCD3εγ [1]
  shift in EC50 upon addition of 100 nM VEGF: ~27 fold
scCD3εγ [2]
  EC50 (read off the curve): ~70 nM
scCD3εγ [3]
  EC50 (read off the curve): ~50 nM
scCD3εγ [4]
  EC50 (read off the curve): ~3 nM

B2: VEGF-binder (SEQ ID NO: 1) (designed binder)
chain: DLDKKLLEAARAGQDDEVRILLKAGADVNAKDSTGWTPLHLAAPWGHPEIVEVLLKAGADVNAKDFQGWTPLHLAAAAGHLEIVEVLLKAGADVNAQDKSGKTPADLAADAGHEDIAEVLQKAA
notes: said to be disclosed in WO 2016/156596
VEGF165 [5]
  EC50 (read off the curve): ~500 pM
VEGF165 [6]
  Kd: 0.21 nM
  koff: 0.00014 s⁻¹
  kon: 646000 M⁻¹ s⁻¹

B3: CD3-specific binding domain (SEQ ID NO: 3) (designed binder)
chain: DLGQKLLEAAWAGQDDEVRELLKAGADVNAKNSRGWTPLHTAAQTGHLEIFEVLLKAGADVNAKNDKRVTPLHLAAALGHLEIVEVLLKAGADVNARDSWGTTPADLAAKYGHQDIAEVLQKAA
modifications: biotinylated when used as immobilized SPR ligand (site not stated)
notes: also called α-CD3 DARPin
scCD3εγ [7]
  EC50 (read off the curve): ~5 nM
scCD3εγ [8]
  EC50 (read off the curve): ~4 nM
scCD3εγ [9]
  EC50 (read off the curve): ~4 nM
scCD3εγ [10]
  EC50 (read off the curve): ~3 nM
scCD3εγ [11]
  EC50 (read off the curve): ~3 nM
scCD3εγ [12]
  EC50 (read off the curve): ~3 nM
scCD3εγ [13]
  EC50 (read off the curve): ~3 nM
scCD3εγ [14]
  EC50 (read off the curve): ~5 nM
scCD3εγ [15]
  EC50 (read off the curve): ~4 nM
scCD3εγ [16]
  Kd: 2.03 nM
scCD3εγ [17]
  EC50 (read off the curve): ~3 nM

## B4
Switchdrug DARPin 17-3 [18]
  EC50 (read off the curve): ~7 nM
Switchdrug DARPin 18-3 [19]
  EC50 (read off the curve): ~70 nM
Switchdrug DARPin 17-3 [20]
  EC50 (read off the curve): ~30 nM
Switchdrug DARPin 15-3
  EC50 (read off the curve): ~30 nM
Switchdrug DARPin 17-1
  EC50 (read off the curve): ~4 nM
Switchdrug DARPin 18-3 [21]
  EC50 (read off the curve): ~40 nM

From patent US20250042957A1 (Molecular Partners, published 2025)
